Data published in publication PMC9584538 (Cell reports, 2022).
Several values for one entry are separate records, joined by “and”; a condition that tells them apart may be missing. Identical values can stand only once. Like-named read-outs stand apart in the source and are kept apart here.

What was measured:
[1] = biological target: _(PARL)Skd3^NBD (human); test: cryo-EM structure
[2] = biological target: _(PARL)Skd3^Δ1-2 (ankyrin repeats 1 and 2 deleted, ΔY127-G196) (human); test: cryo-EM structure
[3] = biological target: _(PARL)Skd3^Δ1-2 (ankyrin repeats 1 and 2 deleted, ΔY127-G196) (human); test: SEC
[4] = biological target: T1, PARLSkd3 (human CLPB) (Homo sapiens, UniProt Q9H078); format: biochemical
T1 sequence (Q9H078 127-707): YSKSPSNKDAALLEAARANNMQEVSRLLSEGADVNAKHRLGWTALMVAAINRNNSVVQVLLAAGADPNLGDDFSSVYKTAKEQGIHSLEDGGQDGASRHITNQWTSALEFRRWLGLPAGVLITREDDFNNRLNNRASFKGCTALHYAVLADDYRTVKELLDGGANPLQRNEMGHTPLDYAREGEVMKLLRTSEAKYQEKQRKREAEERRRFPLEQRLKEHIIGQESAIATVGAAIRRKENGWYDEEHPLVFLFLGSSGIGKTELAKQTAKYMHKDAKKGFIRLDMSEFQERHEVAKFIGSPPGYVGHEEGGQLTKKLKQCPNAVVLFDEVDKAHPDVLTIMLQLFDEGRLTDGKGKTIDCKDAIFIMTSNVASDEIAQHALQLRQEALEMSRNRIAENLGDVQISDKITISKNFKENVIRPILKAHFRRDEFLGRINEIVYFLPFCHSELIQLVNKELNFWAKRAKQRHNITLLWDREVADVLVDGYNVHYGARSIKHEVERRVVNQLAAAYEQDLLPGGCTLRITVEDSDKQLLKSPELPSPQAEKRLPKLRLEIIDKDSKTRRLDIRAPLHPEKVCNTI

[5] = biological target: Casein fluorescein isothiocyanate from bovine milk (FITC-casein) (bovine); test: fluorescence polarisation
[6] = biological target: Casein fluorescein isothiocyanate from bovine milk (FITC-casein) (bovine); test: fluorescence polarisation; remark: listed apart in the source
[7] = biological target: Casein fluorescein isothiocyanate from bovine milk (FITC-casein) (bovine); test: fluorescence polarisation; remark: listed apart in the source
[8] = biological target: the molecule itself; test: SEC
[9] = biological target: the molecule itself

Casein fluorescein isothiocyanate from bovine milk (FITC-casein) (bovine), sequence (P02662 16-214): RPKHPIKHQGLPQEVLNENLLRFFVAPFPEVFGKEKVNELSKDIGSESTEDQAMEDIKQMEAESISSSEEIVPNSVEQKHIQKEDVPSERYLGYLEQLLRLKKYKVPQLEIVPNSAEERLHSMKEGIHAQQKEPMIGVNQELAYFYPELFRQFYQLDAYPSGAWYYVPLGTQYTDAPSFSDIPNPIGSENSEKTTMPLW

Q: For _(PARL)Skd3^NBD (domain or fragment), which stoichiometry N [1] is on record?
A: 6

Q: Which stoichiometry N [2] does the source give for “_(PARL)Skd3^Δ1-2 (ankyrin repeats 1 and 2 deleted, ΔY127-G196) (enzyme)” here?
A: 18

Q: And the stoichiometry N [3]?
A: 12

Q: Which IC50 [4] does the source give for Nc1ncnc2c1ncn2[C@@H]1O[C@H](CO[P@](=O)(O)O[P@](=O)(O)O[P@@](=O)(O)S)[C@@H](O)[C@H]1O [ATPγS] here?
A: ~242 µM

Q: How did the IC50 [4] turn out when Nc1ncnc2c1ncn2[C@@H]1O[C@H](COP(=O)(O)OP(=O)(O)O)[C@@H](O)[C@H]1O [ADP] was run?
A: ~1200 µM

B1: PARL-protease-activated Skd3 (human CLPB), wild type (enzyme)
chain: T1 sequence (Q9H078 127-707)
Q: B1 was tested. Which Kd [5] did it give?
A: 0.5 µM

Q: What about the Kd [6] of the same molecule?
A: 0.4 µM

Q: What about the Kd [7] of the same molecule?
A: 0.1 µM

B2: _(PARL)Skd3^Δ3-4 (ankyrin repeats 3 and 4 deleted, ΔS263-K325) (enzyme, human, UniProt Q9H078 127-707, looked up)
chain: YSKSPSNKDAALLEAARANNMQEVSRLLSEGADVNAKHRLGWTALMVAAINRNNSVVQVLLAAGADPNLGDDFSSVYKTAKEQGIHSLEDGGQDGASRHITNQWTSALEFRRWLGLPAGVLITREDDFNNRLNNRAQRKREAEERRRFPLEQRLKEHIIGQESAIATVGAAIRRKENGWYDEEHPLVFLFLGSSGIGKTELAKQTAKYMHKDAKKGFIRLDMSEFQERHEVAKFIGSPPGYVGHEEGGQLTKKLKQCPNAVVLFDEVDKAHPDVLTIMLQLFDEGRLTDGKGKTIDCKDAIFIMTSNVASDEIAQHALQLRQEALEMSRNRIAENLGDVQISDKITISKNFKENVIRPILKAHFRRDEFLGRINEIVYFLPFCHSELIQLVNKELNFWAKRAKQRHNITLLWDREVADVLVDGYNVHYGARSIKHEVERRVVNQLAAAYEQDLLPGGCTLRITVEDSDKQLLKSPELPSPQAEKRLPKLRLEIIDKDSKTRRLDIRAPLHPEKVCNTI
Q: B2 was tested. Which “stoichiometry N” value [8] did it give?
A: 12

B3: _(PARL)Skd3^ΔL (ANK linker deleted, ΔD197-A262) (enzyme, human, UniProt Q9H078 127-707, looked up)
chain: YSKSPSNKDAALLEAARANNMQEVSRLLSEGADVNAKHRLGWTALMVAAINRNNSVVQVLLAAGADPNLGSFKGCTALHYAVLADDYRTVKELLDGGANPLQRNEMGHTPLDYAREGEVMKLLRTSEAKYQEKQRKREAEERRRFPLEQRLKEHIIGQESAIATVGAAIRRKENGWYDEEHPLVFLFLGSSGIGKTELAKQTAKYMHKDAKKGFIRLDMSEFQERHEVAKFIGSPPGYVGHEEGGQLTKKLKQCPNAVVLFDEVDKAHPDVLTIMLQLFDEGRLTDGKGKTIDCKDAIFIMTSNVASDEIAQHALQLRQEALEMSRNRIAENLGDVQISDKITISKNFKENVIRPILKAHFRRDEFLGRINEIVYFLPFCHSELIQLVNKELNFWAKRAKQRHNITLLWDREVADVLVDGYNVHYGARSIKHEVERRVVNQLAAAYEQDLLPGGCTLRITVEDSDKQLLKSPELPSPQAEKRLPKLRLEIIDKDSKTRRLDIRAPLHPEKVCNTI
Q: Which “stoichiometry N” value [8] does the source give for B3 here?
A: 12 and 6

B4: _(PARL)Skd3^ΔL507-I534 (NBD insertion deleted) (enzyme, human, UniProt Q9H078 127-707, looked up)
chain: YSKSPSNKDAALLEAARANNMQEVSRLLSEGADVNAKHRLGWTALMVAAINRNNSVVQVLLAAGADPNLGDDFSSVYKTAKEQGIHSLEDGGQDGASRHITNQWTSALEFRRWLGLPAGVLITREDDFNNRLNNRASFKGCTALHYAVLADDYRTVKELLDGGANPLQRNEMGHTPLDYAREGEVMKLLRTSEAKYQEKQRKREAEERRRFPLEQRLKEHIIGQESAIATVGAAIRRKENGWYDEEHPLVFLFLGSSGIGKTELAKQTAKYMHKDAKKGFIRLDMSEFQERHEVAKFIGSPPGYVGHEEGGQLTKKLKQCPNAVVLFDEVDKAHPDVLTIMLQLFDEGRLTDGKGKTIDCKDAIFIMTSNVASDEIAQHATISKNFKENVIRPILKAHFRRDEFLGRINEIVYFLPFCHSELIQLVNKELNFWAKRAKQRHNITLLWDREVADVLVDGYNVHYGARSIKHEVERRVVNQLAAAYEQDLLPGGCTLRITVEDSDKQLLKSPELPSPQAEKRLPKLRLEIIDKDSKTRRLDIRAPLHPEKVCNTI
Q: Which “stoichiometry N” value [8] does the source give for B4 here?
A: 12

B5: _(PARL)Skd3^ΔL660-I707 (lacking the CTD) (enzyme, human, UniProt Q9H078 127-707, looked up)
chain: YSKSPSNKDAALLEAARANNMQEVSRLLSEGADVNAKHRLGWTALMVAAINRNNSVVQVLLAAGADPNLGDDFSSVYKTAKEQGIHSLEDGGQDGASRHITNQWTSALEFRRWLGLPAGVLITREDDFNNRLNNRASFKGCTALHYAVLADDYRTVKELLDGGANPLQRNEMGHTPLDYAREGEVMKLLRTSEAKYQEKQRKREAEERRRFPLEQRLKEHIIGQESAIATVGAAIRRKENGWYDEEHPLVFLFLGSSGIGKTELAKQTAKYMHKDAKKGFIRLDMSEFQERHEVAKFIGSPPGYVGHEEGGQLTKKLKQCPNAVVLFDEVDKAHPDVLTIMLQLFDEGRLTDGKGKTIDCKDAIFIMTSNVASDEIAQHALQLRQEALEMSRNRIAENLGDVQISDKITISKNFKENVIRPILKAHFRRDEFLGRINEIVYFLPFCHSELIQLVNKELNFWAKRAKQRHNITLLWDREVADVLVDGYNVHYGARSIKHEVERRVVNQLAAAYEQDLLPGGCTLRITVEDSDKQ
Q: Which “stoichiometry N” value [9] does the source give for B5 here?
A: 6 and 12
